Results: patent publication US7285654 (SIGNAL PHARMACEUTICALS, dated 2007)
Square brackets hold non-standard residues; d marks the D form. Ends that are not written are not given here. pS = N[C@@H](COP(=O)(O)O)C(=O)O

Biological target: IKK signalsome (stimulus-inducible IκB kinase complex) immunopurified from TNFα-stimulated HeLa cells (human)
Assay: product inhibition of immunopurified IKK signalsome; 32P incorporation into GST-IκBα (1-54), TCA precipitation, Dixon analysis

IKK signalsome (stimulus-inducible IκB kinase complex) immunopurified from TNFα-stimulated HeLa cells (human), sequence (chain, as listed by the source, chain 1 of 3): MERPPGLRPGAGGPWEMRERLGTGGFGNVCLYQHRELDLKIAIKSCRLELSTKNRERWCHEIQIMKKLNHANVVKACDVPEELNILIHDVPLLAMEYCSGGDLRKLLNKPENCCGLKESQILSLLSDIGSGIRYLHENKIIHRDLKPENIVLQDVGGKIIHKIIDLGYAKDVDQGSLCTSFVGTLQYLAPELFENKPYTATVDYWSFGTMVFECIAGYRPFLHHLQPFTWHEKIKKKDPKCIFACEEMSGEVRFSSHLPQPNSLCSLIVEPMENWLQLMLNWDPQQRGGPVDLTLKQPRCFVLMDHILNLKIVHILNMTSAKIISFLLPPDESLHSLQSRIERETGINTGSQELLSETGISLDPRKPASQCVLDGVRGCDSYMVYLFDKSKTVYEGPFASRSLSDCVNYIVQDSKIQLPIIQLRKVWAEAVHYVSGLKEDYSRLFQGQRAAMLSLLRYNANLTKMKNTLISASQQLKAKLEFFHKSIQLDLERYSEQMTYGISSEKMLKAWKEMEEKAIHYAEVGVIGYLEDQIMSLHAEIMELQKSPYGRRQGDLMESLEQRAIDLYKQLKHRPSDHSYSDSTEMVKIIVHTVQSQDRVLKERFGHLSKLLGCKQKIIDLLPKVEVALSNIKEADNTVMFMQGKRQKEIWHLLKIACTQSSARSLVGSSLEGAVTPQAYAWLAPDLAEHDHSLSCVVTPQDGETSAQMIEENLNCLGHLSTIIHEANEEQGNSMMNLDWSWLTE
IKK signalsome (stimulus-inducible IκB kinase complex) immunopurified from TNFα-stimulated HeLa cells (human), sequence (chain, as listed by the source, chain 2 of 3): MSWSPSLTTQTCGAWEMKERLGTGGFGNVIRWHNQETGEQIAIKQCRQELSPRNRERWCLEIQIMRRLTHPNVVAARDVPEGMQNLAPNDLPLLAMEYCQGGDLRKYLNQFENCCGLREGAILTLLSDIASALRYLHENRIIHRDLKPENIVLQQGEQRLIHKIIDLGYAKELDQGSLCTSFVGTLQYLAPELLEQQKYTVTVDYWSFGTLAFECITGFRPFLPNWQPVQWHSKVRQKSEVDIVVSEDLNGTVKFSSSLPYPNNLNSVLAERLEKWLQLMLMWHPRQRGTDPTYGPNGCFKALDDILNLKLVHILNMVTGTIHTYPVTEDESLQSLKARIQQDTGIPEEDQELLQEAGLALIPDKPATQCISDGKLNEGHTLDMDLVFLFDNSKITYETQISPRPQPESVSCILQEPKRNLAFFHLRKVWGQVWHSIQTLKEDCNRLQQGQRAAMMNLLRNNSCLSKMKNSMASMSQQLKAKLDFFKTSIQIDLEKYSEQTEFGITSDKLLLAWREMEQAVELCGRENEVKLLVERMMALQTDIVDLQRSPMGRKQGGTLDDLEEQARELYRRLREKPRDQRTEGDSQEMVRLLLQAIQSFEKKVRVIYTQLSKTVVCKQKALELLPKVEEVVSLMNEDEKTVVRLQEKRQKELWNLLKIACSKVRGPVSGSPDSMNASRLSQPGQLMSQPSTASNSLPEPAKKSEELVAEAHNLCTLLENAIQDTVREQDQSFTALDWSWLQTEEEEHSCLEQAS
IKK signalsome (stimulus-inducible IκB kinase complex) immunopurified from TNFα-stimulated HeLa cells (human), sequence (chain, as listed by the source, chain 3 of 3): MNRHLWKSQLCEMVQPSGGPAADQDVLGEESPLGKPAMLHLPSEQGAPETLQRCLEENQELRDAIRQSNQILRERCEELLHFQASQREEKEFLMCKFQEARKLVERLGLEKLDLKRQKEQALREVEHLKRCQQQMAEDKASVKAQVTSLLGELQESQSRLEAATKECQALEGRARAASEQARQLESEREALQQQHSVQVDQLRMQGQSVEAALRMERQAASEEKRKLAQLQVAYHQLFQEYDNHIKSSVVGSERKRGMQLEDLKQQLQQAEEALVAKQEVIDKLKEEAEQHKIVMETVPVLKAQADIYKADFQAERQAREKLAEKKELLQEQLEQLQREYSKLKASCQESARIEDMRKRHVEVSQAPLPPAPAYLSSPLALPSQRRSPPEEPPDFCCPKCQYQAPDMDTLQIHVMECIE

Ki: 14 µM
B1: IκBα (21-41) peptide P32,36 (doubly phosphorylated IκBα peptide bearing phosphoserines at both positions 32 and 36) (peptide)
peptide: CKKERLLDDRHD[pS]GLD[pS]MKDEE
notes: The phosphorylated forms are described as the same peptide chemically phosphorylated; also called P32, 36 peptide
